Laboratory results: US6949349
Positions of bridges follow the written chain, without caps; N, C: chain ends. No end group written: not given here.

T1: IGFBP-1 (human, UniProt P08833 26-259)
T1 construct: Biotinylated in the ELISA assays; also called rhIGFBP-1
T1 sequence (looked up): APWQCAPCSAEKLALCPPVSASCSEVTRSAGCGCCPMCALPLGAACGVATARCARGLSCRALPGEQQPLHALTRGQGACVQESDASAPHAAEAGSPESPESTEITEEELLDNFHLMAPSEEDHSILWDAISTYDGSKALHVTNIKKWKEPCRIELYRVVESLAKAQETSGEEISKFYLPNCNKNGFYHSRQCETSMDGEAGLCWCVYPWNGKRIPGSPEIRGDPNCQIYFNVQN

B1: peptide-phage clone 4D3.8 (g8 display) (peptide, not shown: large carriers)
chain: SEEVCWPVAEWYLCNILGP
modifications: not fully specified (C-terminus, bridges); cysteine pairing not given here; also: polyvalent display on phage particle
notes: Tested as a whole phage particle with polyvalent display
B2: peptide-phage clone 4D3.9 (g8 display) (peptide, not shown: large carriers)
chain: ETVANCDCYMDLCLCYGSDR
modifications: cysteine pairing not given here; also: C-terminal fusion to linker and M13 g8p, phage-displayed
notes: as for B1
B3: peptide-phage clone 4D3.12 (g8 display) (peptide, not shown: large carriers)
chain: AEWAECWIAGDQLLCVGKDN
modifications: not fully specified (C-terminus, bridges); cysteine pairing not given here; also: polyvalent display on phage particle
notes: as for B1
B4: peptide-phage clone 4C3.2 (g8 display) (peptide, not shown: large carriers)
chain: ELDGWVCIKVGEQNLCYLAE
modifications: not fully specified (C-terminus, bridges); cysteine pairing not given here; also: polyvalent display on phage particle
notes: as for B1

Each binder was assayed against T2, IGFBP-3 (human, UniProt P17936 28-291) (assay: BIAcore competition: peptide inhibits IGFBP-3 binding to IGF-I; ratio to bp3-01-ox).
T2 construct: also called rhIGFBP-3
T2 sequence (P17936 28-291 limits assumed): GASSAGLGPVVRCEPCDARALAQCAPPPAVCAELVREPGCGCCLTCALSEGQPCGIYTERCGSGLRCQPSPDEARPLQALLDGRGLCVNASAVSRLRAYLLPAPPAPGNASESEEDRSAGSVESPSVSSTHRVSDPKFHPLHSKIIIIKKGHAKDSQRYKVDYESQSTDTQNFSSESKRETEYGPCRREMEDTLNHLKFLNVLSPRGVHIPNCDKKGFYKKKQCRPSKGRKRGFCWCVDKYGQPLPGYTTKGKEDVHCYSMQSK

Row | Binder | IC50 (mut)/IC50 (wt)
1 | CWPVAEWYLCN [bp3-25 (SEQ ID NO:106)] | 23 ratio
2 | EVCWPVAEWYLCN (bp3-01-ox variant) [bp3-27] | 1.4 ratio

Each binder was assayed against T1, IGFBP-1 (assay: BIAcore competition (starred): peptide inhibits IGFBP-1 binding to IGF-I; ratio to bp1-01 (wt)).

Row | Binder | IC50 (mut)/IC50 (wt)
3 | CRKGPLQWLCELYF (g8 bp1-01 selectant) [bp1-10] | 1.1 ratio
4 | CRKGPLQWLCEKYF (g8 bp1-01 selectant) [bp1-11] | 1.9 ratio
5 | CKEGPLQWLCEKYF (g8 bp1-01 selectant) [bp1-12] | 2.9 ratio
6 | CKEGPLLWLCEKYF (g8 bp1-01 selectant) [bp1-13] | 2.5 ratio

Each binder was assayed against T2, IGFBP-3 (assay: BIAcore competition: peptide inhibits IGFBP-3 binding to immobilized IGF-I).

Row | Binder | IC50
7 | CWPVAEWYLCN [bp3-25 (SEQ ID NO:106)] | 46 µM
8 | EVCWPVAEWYLCN (bp3-01-ox variant) [bp3-27] | 2.8 µM

These binders were tested against T1, IGFBP-1 (assay: BIAcore competition: peptide inhibits IGFBP-1 binding to IGF-I; ratio against bp1-14).

Row | Binder | IC50 (114)/IC50 (mut)
9 | CRAGPLQWLCEKYFSTY-NH2 (disulfide 1-10 (inferred), g3 bp1-01 selectant) [bp1-21B] | 0.67 ratio
10 | EARVCRAGPLQWLCEKYF-NH2 (disulfide 5-14 (inferred), g3 bp1-01 selectant) [bp1-20] | 2.6 ratio
11 | SEVGCRAGPLQWLCEKYFSTY-NH2 (disulfide 5-14 (inferred), g3 bp1-01 selectant) [bp1-21A] | 3.2 ratio

The binders below were run against T1, IGFBP-1 (assay: BIAcore competition: peptide inhibits IGFBP-1 binding to IGF-I; ratio against bp1-16).

Row | Binder | IC50 (116)/IC50 (mut)
12 | CRAGPLQWLCEKYFSTY-NH2 (disulfide 1-10 (inferred), g3 bp1-01 selectant) [bp1-21B] | 3.1 ratio
13 | EARVCRAGPLQWLCEKYF-NH2 (disulfide 5-14 (inferred), g3 bp1-01 selectant) [bp1-20] | 12 ratio
14 | SEVGCRAGPLQWLCEKYFSTY-NH2 (disulfide 5-14 (inferred), g3 bp1-01 selectant) [bp1-21A] | 15 ratio

These binders were tested against T3, recombinant human IGFBP-3 (human, UniProt P17936 28-291) (assay: phage ELISA on IGFBP-3 plate, 50-fold phage dilution, with/without 100 nM IGF-I as competitor (FIG. 29)).
T3 construct: also called rhIGFBP-3
T3 sequence (P17936 28-291 limits assumed): as the sequence (P17936 28-291 limits assumed) above
Experimental: The plates were then washed ten times, as above, and a solution of rabbit anti-phage antibody mixed with a goat-anti-rabbit conjugate of horse radish peroxidase was added. After an incubation of 1 hour at room temperature, the plates were developed with a chromogenic substrate, o-phenylenediamine (Sigma). The reaction was stopped with addition of ½ volume of 2.5 M H_2SO_4. Optical density at 490 nm was measured on a spectrophotometric plate reader.
In each case, the phagemid clone was grown from a single colony overnight at 37° C. in a culture volume of 5 ml. The phage particles were precipitated and resuspended in 0.5 ml of PBS buffer.

Row | Binder | percent inhibition of phage binding by IGF-I
15 | B1 | > 40%
16 | B2 | > 40%
17 | B3 | > 40%
18 | B4 | > 40%
